Biological target: T1, Yku80 (S. cerevisiae, UniProt Q04437 1-629)
T1 sequence (looked up): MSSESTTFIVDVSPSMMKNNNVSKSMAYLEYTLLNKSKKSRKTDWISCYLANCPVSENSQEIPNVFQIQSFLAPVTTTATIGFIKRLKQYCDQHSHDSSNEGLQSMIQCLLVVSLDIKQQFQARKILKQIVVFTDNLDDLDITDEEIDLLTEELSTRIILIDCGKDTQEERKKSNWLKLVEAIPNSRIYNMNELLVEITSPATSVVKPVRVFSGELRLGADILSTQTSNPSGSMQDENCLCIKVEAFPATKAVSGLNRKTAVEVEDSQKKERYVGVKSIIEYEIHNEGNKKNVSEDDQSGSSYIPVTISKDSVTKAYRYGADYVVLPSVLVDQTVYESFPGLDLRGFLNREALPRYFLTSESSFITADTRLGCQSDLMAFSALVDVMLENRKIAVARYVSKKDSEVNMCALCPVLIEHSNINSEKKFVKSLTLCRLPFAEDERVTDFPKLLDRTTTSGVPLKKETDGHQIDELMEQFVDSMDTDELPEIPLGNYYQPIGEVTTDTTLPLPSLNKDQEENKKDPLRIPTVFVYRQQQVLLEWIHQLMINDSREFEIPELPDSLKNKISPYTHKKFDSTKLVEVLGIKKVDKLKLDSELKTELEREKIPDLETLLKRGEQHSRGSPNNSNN
Experiment: cryo-EM structure

binding result: binds
B1: Yku70 (natural protein, S. cerevisiae, UniProt P32807 1-602, looked up)
chain: MRSVTNAFGNSGELNDQVDETGYRKFDIHEGILFCIELSETMFKESSDLEYKSPLLEILESLDELMSQLVITRPGTAIGCYFYYCNREDAKEGIYELFPLRDINATFMKKLNDLLEDLSSGRISLYDYFMFQQTGSEKQVRLSVLFTFMLDTFLEEIPGQKQLSNKRVFLFTDIDKPQEAQDIDERARLRRLTIDLFDNKVNFATFFIGYADKPFDNEFYSDILQLGSHTNENTGLDSEFDGPSTKPIDAKYIKSRILRKKEVKRIMFQCPLILDEKTNFIVGVKGYTMYTHEKAGVRYKLVYEHEDIRQEAYSKRKFLNPITGEDVTGKTVKVYPYGDLDINLSDSQDQIVMEAYTQKDAFLKIIGFRSSSKSIHYFNNIDKSSFIVPDEAKYEGSIRTLASLLKILRKKDKIAILWGKLKSNSHPSLYTLSPSSVKDYNEGFYLYRVPFLDEIRKFPSLLSYDDGSEHKLDYDNMKKVTQSIMGYFNLRDGYNPSDFKNPLLQKHYKVLHDYLLQIETTFDENETPNTKKDRMMREDDSLRKLYYIRNKILESEKSEDPIIQRLNKYVKIWNMFYKKFNDDNISIKEEKKPFDKKPKFNI

Source: article doi:10.1101/2024.12.22.629684 (bioRxiv, 2024)
